PMC5490261, “The structural and functional characterization of human RecQ4 reveals insights into its helicase mechanism”
Positions count from the first letter of the chain named.

Legend:
Experiment in all cases: fluorescence polarization; WT-like, low nM apparent Kd; 20 mM HEPES pH 8.0, 10 mM NaCl, 5% glycerol, 1 mM MgCl2, 0.5 mM TCEP, 0.5 nM Cy3-ssDNA; temperature not stated
Settings in all cases: protein: recombinant; tags: Trx-His6 removed by 3C protease; label: 5' Cy3
[1] = target: T1, RecQ4 427-1208 del944-1032 (Homo sapiens, UniProt O94761 427-943+=GG+1032-1208, internal_change)
T1 sequence: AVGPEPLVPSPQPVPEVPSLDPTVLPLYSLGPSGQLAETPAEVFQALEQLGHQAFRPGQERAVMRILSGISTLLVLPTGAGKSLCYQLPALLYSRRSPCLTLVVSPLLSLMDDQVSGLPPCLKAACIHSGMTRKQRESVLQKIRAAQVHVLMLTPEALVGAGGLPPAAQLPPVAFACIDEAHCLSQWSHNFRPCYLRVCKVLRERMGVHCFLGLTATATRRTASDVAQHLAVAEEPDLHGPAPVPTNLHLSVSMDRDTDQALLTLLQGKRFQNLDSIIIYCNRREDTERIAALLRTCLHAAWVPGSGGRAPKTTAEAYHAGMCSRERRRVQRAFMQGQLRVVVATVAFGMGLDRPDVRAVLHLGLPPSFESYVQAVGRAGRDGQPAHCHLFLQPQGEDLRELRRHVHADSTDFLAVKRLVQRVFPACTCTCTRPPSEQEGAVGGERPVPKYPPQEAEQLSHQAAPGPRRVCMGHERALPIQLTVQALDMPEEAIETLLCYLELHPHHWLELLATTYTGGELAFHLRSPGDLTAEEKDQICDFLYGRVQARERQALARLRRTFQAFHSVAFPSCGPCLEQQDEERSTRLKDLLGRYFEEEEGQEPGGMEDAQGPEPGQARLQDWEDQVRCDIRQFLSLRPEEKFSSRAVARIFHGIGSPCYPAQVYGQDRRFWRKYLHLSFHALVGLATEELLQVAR

[2] = target: T2, RecQ4 427-1208 R894A/R895A (Homo sapiens, UniProt O94761 427-1208, R894A;R895A)
T2 sequence: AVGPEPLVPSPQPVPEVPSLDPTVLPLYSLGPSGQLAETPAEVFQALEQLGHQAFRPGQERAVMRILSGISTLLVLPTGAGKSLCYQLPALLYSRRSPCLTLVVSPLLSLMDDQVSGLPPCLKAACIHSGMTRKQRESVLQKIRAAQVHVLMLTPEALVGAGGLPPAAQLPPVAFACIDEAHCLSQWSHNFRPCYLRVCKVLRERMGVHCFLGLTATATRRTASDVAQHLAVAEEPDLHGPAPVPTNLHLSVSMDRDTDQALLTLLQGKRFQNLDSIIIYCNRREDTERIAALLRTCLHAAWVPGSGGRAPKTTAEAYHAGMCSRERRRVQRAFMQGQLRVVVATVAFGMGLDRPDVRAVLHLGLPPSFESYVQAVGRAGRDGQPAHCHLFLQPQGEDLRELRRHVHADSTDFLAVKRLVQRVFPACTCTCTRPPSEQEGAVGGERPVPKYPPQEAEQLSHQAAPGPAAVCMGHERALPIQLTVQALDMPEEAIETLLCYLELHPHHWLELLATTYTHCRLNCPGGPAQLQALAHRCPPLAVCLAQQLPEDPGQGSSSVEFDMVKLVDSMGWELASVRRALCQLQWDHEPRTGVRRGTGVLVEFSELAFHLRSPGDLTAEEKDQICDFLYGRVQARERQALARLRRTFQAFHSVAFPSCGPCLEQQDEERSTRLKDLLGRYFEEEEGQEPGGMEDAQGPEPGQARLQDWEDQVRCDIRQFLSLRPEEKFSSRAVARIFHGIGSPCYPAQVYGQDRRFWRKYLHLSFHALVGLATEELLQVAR

RecQ4 427-1208 K1048A = target: T3, RecQ4 427-1208 K1048A (Homo sapiens, UniProt O94761 427-1208, K1048A)
T3 sequence: T2 sequence with A468R, A469R, K622A

Measured: binding result

CCATTCCACCCTCTATTTTTTTTTTTTTTT (ssDNA) [T3-Cy3]
binds: [1] | [2] | RecQ4 427-1208 K1048A
